# Assay results as given in patent US9046519 (RSR, dated 2015).
# Numbering of substitutions follows the chain as printed. Where two headings read alike, the source gives them in different places.
# B1: 9D33 MAb (antibody, V domains shown)
# VH: DVQIQQPGTELVKPGASVRLSCKASGYTFTTYWMHWVKQRPGQGLEWIGEIDPSDSYTNYNQKFKGKATLTVDKSSSTAYMHLSSLTSEDSAVYYCSRNYGSGYYFDYWGQGTTLTVSS
# VL: GVEMTQSPAIMSASPGEKVTMTCSASSSVSYMHWYQQKSGTSPKRWIYDTSKLASGVPARFSGSGSGTSYSLTISSMETEDAATYYCQQWSSNPWTFGGGTKLEIK
# B2: TSHR Asp232 to Ala, Arg255 to Ala and Trp258 to Ala (receptor)
# chain: GMGCSSPPCECHQEEDFRVTCKDIQRIPSLPPSTQTLKLIETHLRTIPSHAFSNLPNISRIYVSIDVTLQQLESHSFYNLSKVTHIEIRNTRNLTYIDPDALKELPLLKFLGIFNTGLKMFPDLTKVYSTDIFFILEITDNPYMTSIPVNAFQGLCNETLTLKLYNNGFTSVQGYAFNGTKLDAVYLNKNKYLTVIDKDAFGGVYSGPSLLAVSQTSVTALPSKGLEHLKELIAANTATLKKLPLSLSFLHLTRADLSYPSHCCAFKNQKKIRGILESLMCNESSMQSLRQRKSVNALNSPLHQEYEENLGDSIVGYKEKSKFQDTHNNAHYYVFFEEQEDEIIGFGQELKNPQEETLQAFDSHYDYTICGDSEDMVCTPKSDEFNPCEDIMGYKFLRIVVWFVSLLALLGNVFVLLILLTSHYKLNVPRFLMCNLAFADFCMGMYLLLIASVDLYTHSEYYNHAIDWQTGPGCNTAGFFTVFASELSVYTLTVITLERWYAITFAMRLDRKIRLRHACAIMVGGWVCCFLLALLPLVGISSYAKVSICLPMDTETPLALAYIVFVLTLNIVAFVIVCCCYVKIYITVRNPQYNPGDKDTKIAKRMAVLIFTDFICMAPISFYALSAILNKPLITVSNSKILLVLFYPLNSCANPFLYAIFTKAFQRDVFILLSKFGICKRQAQAYRGQRVPPKNSTDIQVQKVTHEMRQGLHNMEDVYELIENSHLTPKKQGQISEEYMQTVL
# notes: whole, on cells; as m1
# B3: TSHR Trp258 to Ala, Lys183 to Ala and Tyr185 to Ala (receptor)
# chain: B2 chain with K163A, Y165A, A212D, A235R
# notes: whole, on cells; as m1
# B4: TSHR Arg255 to Ala, Trp258 to Ala and Tyr185 to Ala (receptor)
# chain: B2 chain with Y165A, A212D
# notes: whole, on cells; as m1
# B5: TSHR Arg255 to Ala, Trp258 to Ala, Tyr185 to Ala and Lys183 to Ala (receptor)
# chain: B2 chain with K163A, Y165A, A212D
# notes: whole, on cells; as m1
# B6: TSHR Arg255 to Ala, Lys183 to Ala and Tyr185 to Ala (receptor)
# chain: B2 chain with K163A, Y165A, A212D, A238W
# notes: whole, on cells; as m1
# Key:
# Assay in all cases: Scatchard, 125I-ligand, solubilised TSHR on tubes
# [1] = target: T1, human thyrotropin receptor (TSHR), wild type, full length (human, UniProt P16473 21-764)
# T1 construct: whole, on cells; Full length cDNA in pcDNA5.1/FRT, stably expressed in Flp-In-CHO cells; Cyclic AMP assays: on the cells; also called TSH receptor; Wild type TSHR
# Protocol: (§1) Firstly, dilution profiles of each TSHR preparation were set up. In these experiments, plastic tubes (Maxisorp Star; NUNC) were coated overnight at 4° C. with 200 µL of a mouse monoclonal antibody to the TSHR C-terminus at 10 µg/mL in coating buffer (0.1 mmol/L Na_2CO$_3$ pH 9.2). After washing and post-coating (10 mg/mL of BSA in water) the tubes were washed with assay buffer (10 mmol/L Tris-HCl pH 7.8, 50 mmol/L NaCl and 1 mg/mL BSA) containing 0.1% Triton X-100. In the next step, 200 µL of solubilized wild type or mutated TSHR preparations were added to the tubes and incubated overnight at 4 C. […] After aspiration of the solutions, the tubes were washed and counted in a gamma counter.
# [2] = target: T2, TSHR Glu107 to Ala (human, UniProt P16473 21-764)
# T2 construct: whole, on cells; as m1
# Protocol: as §1
# [3] = target: T3, TSHR Phe130 to Ala (human, UniProt P16473 21-764)
# T3 construct: whole, on cells; as m1
# Protocol: as §1
# [4] = target: T4, TSHR Phe134 to Ala (human, UniProt P16473 21-764)
# T4 construct: whole, on cells; as m1
# Protocol: as §1
# [5] = target: T5, TSHR Glu157 to Ala (human, UniProt P16473 21-764)
# T5 construct: whole, on cells; as m1; also called Glu157 mutated to Ala
# Protocol: as §1
# [6] = target: T6, TSHR Asp160 to Ala (human, UniProt P16473 21-764)
# T6 construct: whole, on cells; as m1
# Protocol: as §1
# [7] = target: T7, TSHR Glu178 to Ala (human, UniProt P16473 21-764)
# T7 construct: whole, on cells; as m1; also called Glu178 mutated to Ala
# Protocol: as §1
# [8] = target: T8, TSHR Tyr185 to Ala (human, UniProt P16473 21-764)
# T8 construct: whole, on cells; as m1
# Protocol: as §1
# [9] = target: T9, TSHR Asp203 to Ala (human, UniProt P16473 21-764)
# T9 construct: whole, on cells; as m1; also called Asp203 mutated to Ala
# Protocol: as §1
# [10] = target: T10, TSHR Lys209 to Ala (human, UniProt P16473 21-764)
# T10 construct: whole, on cells; as m1
# Protocol: as §1
# [11] = target: T11, TSHR Gln235 to Ala (human, UniProt P16473 21-764)
# T11 construct: whole, on cells; as m1
# Protocol: as §1
# [12] = target: T12, TSHR Lys250 to Ala (human, UniProt P16473 21-764)
# T12 construct: whole, on cells; as m1
# Protocol: as §1
# [13] = target: T13, TSHR Glu251 to Ala (human, UniProt P16473 21-764)
# T13 construct: whole, on cells; as m1
# Protocol: as §1
# [14] = target: T14, TSHR Arg255 to Ala (human, UniProt P16473 21-764)
# T14 construct: whole, on cells; as m1; also called Arg255 mutated to Ala
# Protocol: as §1
# [15] = target: T15, TSHR Arg255 to Asp (human, UniProt P16473 21-764)
# T15 construct: whole, on cells; as m1; also called TSHR with Arg255 mutated to Asp; Arg255 Asp mutation
# Protocol: as §1
# [16] = target: T16, TSHR Thr257 to Ala (human, UniProt P16473 21-764)
# T16 construct: whole, on cells; as m1
# Protocol: as §1
# [17] = target: T17, TSHR Trp258 to Ala (human, UniProt P16473 21-764)
# T17 construct: whole, on cells; as m1; also called Trp258 mutated to Ala
# Protocol: as §1
# [18] = target: T18, TSHR Arg274 to Ala (human, UniProt P16473 21-764)
# T18 construct: whole, on cells; as m1
# Protocol: as §1
# [19] = target: T19, TSHR Asp276 to Ala (human, UniProt P16473 21-764)
# T19 construct: whole, on cells; as m1; also called Asp276 mutated to Ala
# Protocol: as §1
# [20] = target: T20, TSHR Tyr279 to Ala (human, UniProt P16473 21-764)
# T20 construct: whole, on cells; as m1
# Protocol: as §1
# [21] = target: T21, TSHR Ser281 to Ala (human, UniProt P16473 21-764)
# T21 construct: whole, on cells; as m1; also called Ser281 mutated to Ala
# Protocol: as §1
# [22] = target: T22, TSHR Arg255 to Ala and Trp258 to Ala (human, UniProt P16473 21-764)
# T22 construct: whole, on cells; as m1
# Protocol: as §1
# [23] = target: T23, TSHR Asp43 to Ala (human, UniProt P16473 21-764)
# T23 construct: whole, on cells; as m1; also called Asp43 mutated to Ala
# Protocol: as §1
# [24] = target: T24, TSHR Glu61 to Ala (human, UniProt P16473 21-764)
# T24 construct: whole, on cells; as m1; also called Glu61 mutated to Ala
# Protocol: as §1
# [25] = target: T1, human thyrotropin receptor (TSHR), wild …; remark: listed apart in the source
# [26] = target: T25, TSHR Glu157 to Ala and Asp203 to Ala (human, UniProt P16473 21-764)
# T25 construct: whole, on cells; as m1
# [27] = target: T26, TSHR Glu178 to Ala and Asp203 to Ala (human, UniProt P16473 21-764)
# T26 construct: whole, on cells; as m1
# [28] = target: T27, TSHR Tyr185 to Ala and Lys183 to Ala (human, UniProt P16473 21-764)
# T27 construct: whole, on cells; as m1
# [29] = target: T28, TSHR Trp258 to Ala and Tyr185 to Ala (human, UniProt P16473 21-764)
# T28 construct: whole, on cells; as m1
# [30] = target: T29, TSHR Arg255 to Ala and Tyr185 to Ala (human, UniProt P16473 21-764)
# T29 construct: whole, on cells; as m1
# [31] = target: B6
# [32] = target: B4
# [33] = target: porcine TSH (RSR Ltd, 70 units per mg) (porcine, UniProt P01219 25-120; P01224 21-132)
binder,measurement,setting,value
B1,Ka,[1],1.8e+10 M⁻¹
same,Ka,[2],6e+09 M⁻¹
same,Ka,[3],9e+09 M⁻¹
same,Ka,[4],5e+09 M⁻¹
same,Ka,[5],1.3e+10 M⁻¹
same,Ka,[6],1e+10 M⁻¹
same,Ka,[7],1.3e+10 M⁻¹
same,Ka,[8],9e+09 M⁻¹
same,Ka,[9],1.4e+10 M⁻¹
same,Ka,[10],8e+09 M⁻¹
same,Ka,[11],1.1e+10 M⁻¹
same,Ka,[12],6e+09 M⁻¹
same,Ka,[13],8e+09 M⁻¹
same,Ka,[14],8e+09 M⁻¹
same,Ka,[15],1.3e+10 M⁻¹
same,Ka,[16],7e+09 M⁻¹
same,Ka,[17],1.2e+10 M⁻¹
same,Ka,[18],5e+09 M⁻¹
same,Ka,[19],1.3e+10 M⁻¹
same,Ka,[20],6e+09 M⁻¹
same,Ka,[21],9e+09 M⁻¹
same,Ka,[22],1.1e+10 M⁻¹
same,Ka,[23],1.4e+10 M⁻¹
same,Ka,[24],9e+09 M⁻¹
same,Ka,[25],1.8e+10 M⁻¹
same,Ka,[26],6e+09 M⁻¹
same,Ka,[27],8e+09 M⁻¹
same,Ka,[28],6e+09 M⁻¹
same,Ka,[29],9e+09 M⁻¹
same,Ka,[30],9e+09 M⁻¹
same,Ka,[31],3e+09 M⁻¹
same,Ka,[32],8e+09 M⁻¹
B2,binding result,[33],no binding
B3,binding result,[33],no binding
B4,binding result,[33],no binding
B5,binding result,[33],no binding
B6,binding result,[33],no binding
